US8748480B2, “Methods for treating opioid tolerance” (priority 2005, dated 2014)

How the values were obtained:
Assay type in all cases: binding
[1] = target: T1, Gβ1γ2 Tyr59Ala (Rattus norvegicus, UniProt P54311, Y59A); experiment: Phage ELISA, b-βγ mutant Tyr59Ala; conditions: alanine-substituted Tyr59, C-Terminal Interface; mean ± SD
T1 construct: made in house; host or cells: Sf9 insect cells (baculovirus)
Description: (§1) Wild-type Gβ1 and Gβ1 mutants were made in the baculovirus vector PDW464 which encodes a biotinylation site at a lysine upstream of the amino terminus of Gβ1 (Goubaeva, et al. (2003) supra). Mutants were generated by overlap extension PCR using standard protocols. The wild-type and mutant Gβ1 constructs consisted of a 20 amino acid biotin acceptor peptide (BAP) sequence fused in-frame with the amino-terminus of rat Gβ1 subunit. When coexpressed with biotin holoenzyme synthetase (BirA) in Sf9 cells, the Gβ1 subunit becomes covalently biotinylated in vivo at the Specific lysine acceptor residue in the BAP.
Phage ELISA assays used to assess peptide binding to wild-type and mutant b-βγ were performed according to standard methods (Smrcka and Scott (2002) Methods Enzymol. 344:557-76). Briefly, 1 μg streptavidin was immobilized in the well of a […] overnight at 4° C. The wells were blocked with 100 μL of 2% bovine serum albumin (BSA) in Tris-buffered saline (TBS) for 1 hour at 4° C. followed by three washes of 1×TBS/0.5% TWEEN®. […] The wells were washed, followed by the addition of 1×10^6 to 1×10^10 phage particles and incubated at 4° C. for 3 hours. The wells were then washed six times with TBS/0.5% TWEEN® followed by addition of 40 μL of 1:5000 dilution of anti-M13 antibody (Pharmacia, Uppsala, Sweden) and incubated at room temperature for 1 hour. The wells were washed, followed by the addition of 40 μL of (2,2′-Azino-bis(3-ethylbenzthiazoline)-6-sulfonic acid (ABTS) and the colorimetric reaction was monitored at 405 nm. Non-specific binding was subtracted for each reading.
(§2) Both assays were then carried out with Gβ1γ2 heterodimers containing mutations in the Gβ1 subunit.
The nine peptides were selected to represent the different consensus groups of peptides previously identified (See Scott et al. (2001) supra; Table 9) and to compare binding characteristics within and between consensus groups. […] For the purposes of present disclosure, any substitution that decreased the binding to less than 20% of the wild-type binding was considered to be a critical binding contact for that peptide.

[2] = target: T2, Gβ1γ2 Asp246Ser (Rattus norvegicus, UniProt P54311, D246S); experiment: Phage ELISA, b-βγ mutant Asp246Ser; conditions: Asp246 mutant (Asp246Ser), N-Terminal Interface; mean ± SD
T2 construct: made in house; host or cells: Sf9 insect cells (baculovirus)
T2 sequence (P54311 whole entry D246S): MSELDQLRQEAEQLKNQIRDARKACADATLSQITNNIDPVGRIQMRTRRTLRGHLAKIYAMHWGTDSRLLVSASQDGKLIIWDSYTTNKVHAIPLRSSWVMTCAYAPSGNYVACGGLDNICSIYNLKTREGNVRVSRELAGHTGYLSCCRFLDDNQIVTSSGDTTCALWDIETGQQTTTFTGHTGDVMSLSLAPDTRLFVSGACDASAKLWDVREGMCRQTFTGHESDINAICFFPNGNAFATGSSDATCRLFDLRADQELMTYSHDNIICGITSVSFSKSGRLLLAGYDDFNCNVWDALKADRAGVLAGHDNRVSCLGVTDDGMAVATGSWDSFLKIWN
T2 sequence (P63212 2-68 partner limits assumed): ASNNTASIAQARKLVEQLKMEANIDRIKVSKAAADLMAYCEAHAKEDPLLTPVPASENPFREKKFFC
Description: as §1, with “BAP. Using this approach, 1-2 mg protein of purified protein can be obtained per liter of Sf9 insect cells. As 45 ng of protein is used in the phage ELISA assay, a single purification is sufficient for 10,000 to 30,000 binding assays.” for “BAP.”
(§3) Phage ELISA assays used to assess peptide binding to wild-type and mutant b-βγ were performed according to standard methods (Smrcka and Scott (2002) Methods Enzymol. 344:557-76). Briefly, 1 μg streptavidin was immobilized in the well of a […] overnight at 4° C. The wells were blocked with 100 μL of 2% bovine serum albumin (BSA) in Tris-buffered saline (TBS) for 1 hour at 4° C. followed by three washes of 1×TBS/0.5% TWEEN®. Forty μL of 25 nM bGβ1γ2 in TBS/0.5% TWEEN® was added to each well and incubated at 4° C. for 1.5 hour. The wells were washed, followed by the addition of 1×10^6 to 1×10^10 phage particles and incubated at 4° C. for 3 hours. The wells were then washed six times with TBS/0.5% TWEEN® followed by addition of 40 μL of 1:5000 dilution of anti-M13 antibody (Pharmacia, Uppsala, Sweden) and incubated at room temperature for 1 hour. The wells were washed, followed by the addition of 40 μL of (2,2′-Azino-bis(3-ethylbenzthiazoline)-6-sulfonic acid (ABTS) and the colorimetric reaction was monitored at 405 nm. Non-specific binding was subtracted for each reading.
as §2
(§4) The nine peptides were selected to represent the different consensus groups of peptides previously identified (See Scott et al. (2001) supra; Table 9) and to compare binding characteristics within and between consensus groups. […] As disclosed herein, the binding signal obtained in the ELISA assay was correlated to a loss in affinity by comparing the results to behavior of the peptide in a solution based assay. […] For the purposes of present disclosure, any substitution that decreased the binding to less than 20% of the wild-type binding was considered to be a critical binding contact for that peptide.

[3] = target: T3, Gβ1γ2 Asn230Ala (Rattus norvegicus, UniProt P54311, N230A); experiment: Phage ELISA, b-βγ mutant Asn230Ala; conditions: alanine-substituted Asn230, N-Terminal Interface; mean ± SD
T3 construct: made in house; host or cells: Sf9 insect cells (baculovirus)
T3 sequence (P54311 whole entry N230A): as the sequence (P54311 whole entry D246S) above, with N230A, S246D counted along it
T3 sequence (P63212 2-68 partner limits assumed): as the sequence (P63212 2-68 partner limits assumed) above
Description: as §1, with “BAP. Using this approach, 1-2 mg protein of purified protein can be obtained per liter of Sf9 insect cells. As 45 ng of protein is used in the phage ELISA assay, a single purification is sufficient for 10,000 to 30,000 binding assays.” for “BAP.”
as §3, §2, §4

[4] = target: T4, Gβ1γ2 Tyr145Ala (Rattus norvegicus, UniProt P54311, Y145A); experiment: Phage ELISA, b-βγ mutant Tyr145Ala; conditions: alanine-substituted Tyr145, N-Terminal Interface; mean ± SD
T4 construct: made in house; host or cells: Sf9 insect cells (baculovirus)
T4 sequence (P54311 whole entry Y145A): as the sequence (P54311 whole entry D246S) above, with Y145A, S246D counted along it
T4 sequence (P63212 2-68 partner limits assumed): as the sequence (P63212 2-68 partner limits assumed) above
Description: as §1, with “BAP. Using this approach, 1-2 mg protein of purified protein can be obtained per liter of Sf9 insect cells. As 45 ng of protein is used in the phage ELISA assay, a single purification is sufficient for 10,000 to 30,000 binding assays.” for “BAP.”
as §3, §2, §4

[5] = target: T5, Gβ1γ2 Met101Ala (Rattus norvegicus, UniProt P54311, M101A); experiment: Phage ELISA, b-βγ mutant Met101Ala; conditions: alanine-substituted Met101, C-Terminal Interface; mean ± SD
T5 construct: made in house; host or cells: Sf9 insect cells (baculovirus)
T5 sequence (P54311 whole entry M101A): as the sequence (P54311 whole entry D246S) above, with M101A, S246D counted along it
T5 sequence (P63212 2-68 partner limits assumed): as the sequence (P63212 2-68 partner limits assumed) above
Description: as §1, with “BAP. Using this approach, 1-2 mg protein of purified protein can be obtained per liter of Sf9 insect cells. As 45 ng of protein is used in the phage ELISA assay, a single purification is sufficient for 10,000 to 30,000 binding assays.” for “BAP.”
as §3, §2, §4

[6] = target: T6, Gβ1γ2 Arg314Ala (Rattus norvegicus, UniProt P54311, R314A); experiment: Phage ELISA, b-βγ mutant Arg314Ala; conditions: alanine-substituted Arg314, Indirect; mean ± SD
T6 construct: made in house; host or cells: Sf9 insect cells (baculovirus)
T6 sequence (P54311 whole entry R314A): as the sequence (P54311 whole entry D246S) above, with S246D, R314A counted along it
T6 sequence (P63212 2-68 partner limits assumed): as the sequence (P63212 2-68 partner limits assumed) above
Description: as §1, with “BAP. Using this approach, 1-2 mg protein of purified protein can be obtained per liter of Sf9 insect cells. As 45 ng of protein is used in the phage ELISA assay, a single purification is sufficient for 10,000 to 30,000 binding assays.” for “BAP.”
as §3, §2, §4

[7] = target: T7, Gβ1γ2 Trp99Ala (Rattus norvegicus, UniProt P54311, W99A); experiment: Phage ELISA, b-βγ mutant Trp99Ala; conditions: alanine-substituted Trp99, C-Terminal Interface; mean ± SD
T7 construct: made in house; host or cells: Sf9 insect cells (baculovirus)
T7 sequence (P54311 whole entry W99A): as the sequence (P54311 whole entry D246S) above, with W99A, S246D counted along it
T7 sequence (P63212 2-68 partner limits assumed): as the sequence (P63212 2-68 partner limits assumed) above
Description: as §1, with “BAP. Using this approach, 1-2 mg protein of purified protein can be obtained per liter of Sf9 insect cells. As 45 ng of protein is used in the phage ELISA assay, a single purification is sufficient for 10,000 to 30,000 binding assays.” for “BAP.”
as §3, §2, §4

[8] = target: T8, Gβ1γ2 His311Ala (Rattus norvegicus, UniProt P54311, H311A); experiment: Phage ELISA, b-βγ mutant His311Ala; conditions: alanine-substituted His311, Indirect; mean ± SD
T8 construct: made in house; host or cells: Sf9 insect cells (baculovirus)
T8 sequence (P54311 whole entry H311A): as the sequence (P54311 whole entry D246S) above, with S246D, H311A counted along it
T8 sequence (P63212 2-68 partner limits assumed): as the sequence (P63212 2-68 partner limits assumed) above
Description: as §1, with “BAP. Using this approach, 1-2 mg protein of purified protein can be obtained per liter of Sf9 insect cells. As 45 ng of protein is used in the phage ELISA assay, a single purification is sufficient for 10,000 to 30,000 binding assays.” for “BAP.”
as §3, §2, §4

[9] = target: T9, Gβ1γ2 Trp332Ala (Rattus norvegicus, UniProt P54311, W332A); experiment: Phage ELISA, b-βγ mutant Trp332Ala; conditions: alanine-substituted Trp332, C-Terminal Interface; mean ± SD
T9 construct: made in house; host or cells: Sf9 insect cells (baculovirus)
T9 sequence (P54311 whole entry W332A): as the sequence (P54311 whole entry D246S) above, with S246D, W332A counted along it
T9 sequence (P63212 2-68 partner limits assumed): as the sequence (P63212 2-68 partner limits assumed) above
Description: as §1, with “BAP. Using this approach, 1-2 mg protein of purified protein can be obtained per liter of Sf9 insect cells. As 45 ng of protein is used in the phage ELISA assay, a single purification is sufficient for 10,000 to 30,000 binding assays.” for “BAP.”
as §3, §2, §4

[10] = target: T10, Gβ1γ2 Asp186Ala (Rattus norvegicus, UniProt P54311, D186A); experiment: Phage ELISA, b-βγ mutant Asp186Ala; conditions: alanine-substituted Asp186, N-Terminal Interface; mean ± SD
T10 construct: made in house; host or cells: Sf9 insect cells (baculovirus)
T10 sequence (P54311 whole entry D186A): as the sequence (P54311 whole entry D246S) above, with D186A, S246D counted along it
T10 sequence (P63212 2-68 partner limits assumed): as the sequence (P63212 2-68 partner limits assumed) above
Description: as §1, with “BAP. Using this approach, 1-2 mg protein of purified protein can be obtained per liter of Sf9 insect cells. As 45 ng of protein is used in the phage ELISA assay, a single purification is sufficient for 10,000 to 30,000 binding assays.” for “BAP.”
as §3, §2, §4

[11] = target: T11, Gβ1γ2 Met188Ala (Rattus norvegicus, UniProt P54311, M188A); experiment: Phage ELISA, b-βγ mutant Met188Ala; conditions: alanine-substituted Met188, Shared; mean ± SD
T11 construct: made in house; host or cells: Sf9 insect cells (baculovirus)
T11 sequence (P54311 whole entry M188A): as the sequence (P54311 whole entry D246S) above, with M188A, S246D counted along it
T11 sequence (P63212 2-68 partner limits assumed): as the sequence (P63212 2-68 partner limits assumed) above
Description: as §1, with “BAP. Using this approach, 1-2 mg protein of purified protein can be obtained per liter of Sf9 insect cells. As 45 ng of protein is used in the phage ELISA assay, a single purification is sufficient for 10,000 to 30,000 binding assays.” for “BAP.”
as §3, §2, §4

[12] = target: T12, Gβ1γ2 Lys57Ala (Rattus norvegicus, UniProt P54311, K57A); experiment: Phage ELISA, b-βγ mutant Lys57Ala; conditions: alanine-substituted Lys57, C-Terminal Interface; mean ± SD
T12 construct: made in house; host or cells: Sf9 insect cells (baculovirus)
T12 sequence (P54311 whole entry K57A): as the sequence (P54311 whole entry D246S) above, with K57A, S246D counted along it
T12 sequence (P63212 2-68 partner limits assumed): as the sequence (P63212 2-68 partner limits assumed) above
Description: as §1, with “BAP. Using this approach, 1-2 mg protein of purified protein can be obtained per liter of Sf9 insect cells. As 45 ng of protein is used in the phage ELISA assay, a single purification is sufficient for 10,000 to 30,000 binding assays.” for “BAP.”
as §3, §2, §4

[13] = target: T13, Gβ1γ2 Leu117Ala (Rattus norvegicus, UniProt P54311, L117A); experiment: Phage ELISA, b-βγ mutant Leu117Ala; conditions: alanine-substituted Leu117, C-Terminal Interface; mean ± SD
T13 construct: made in house; host or cells: Sf9 insect cells (baculovirus)
T13 sequence (P54311 whole entry L117A): as the sequence (P54311 whole entry D246S) above, with L117A, S246D counted along it
T13 sequence (P63212 2-68 partner limits assumed): as the sequence (P63212 2-68 partner limits assumed) above
Description: as §1, with “BAP. Using this approach, 1-2 mg protein of purified protein can be obtained per liter of Sf9 insect cells. As 45 ng of protein is used in the phage ELISA assay, a single purification is sufficient for 10,000 to 30,000 binding assays.” for “BAP.”
as §3, §2, §4

T1 sequence (P54311 whole entry Y59A): as the sequence (P54311 whole entry D246S) above, with Y59A, S246D counted along it
T1 sequence (P63212 2-68 partner limits assumed): as the sequence (P63212 2-68 partner limits assumed) above

Sequence | % of Wild-Type Signal, Tyr59 [1] [%] | % of Wild-Type Signal, Asp246 [2] [%] | % of Wild-Type Signal, Asn230 [3] [%] | % of Wild-Type Signal, Tyr145 [4] [%] | % of Wild-Type Signal, Met101 [5] [%] | % of Wild-Type Signal, Arg314 [6] [%] | % of Wild-Type Signal, Trp99 [7] [%] | % of Wild-Type Signal, His311 [8] [%] | % of Wild-Type Signal, Trp332 [9] [%] | % of Wild-Type Signal, Asp186 [10] [%] | % of Wild-Type Signal, Met188 [11] [%] | % of Wild-Type Signal, Lys57 [12] [%] | % of Wild-Type Signal, Leu117 [13] [%]
SCKRTKAQILLAPCT [C1] | 0.3 ± 0.7 | 2.3 ± 3.0 | 19.8 ± 12.3 | 88.0 ± 29.9 | 70.5 ± 35.3 | 2.8 ± 1.6 | 1.2 ± 2.7 | 3.0 ± 4.0 | −0.3 ± 2.5 | 1.4 ± 1.7 | 4.0 ± 3.4 | 0.1 ± 1.6 | 5.2 ± 3.1
SIGKALFILGYPDYD [3.14] | 24.7 ± 15.2 | 66.5 ± 7.5 | 22.4 ± 4.2 | 0.8 ± 0.9 | 26.8 ± 12.5 | 50.2 ± 5.0 | 66.0 ± 7.7 | 93.4 ± 21.5 | 7.1 ± 3.7 | 14.4 ± 13.4 | 2.5 ± 3.7 | 18.6 ± 4.6 | 2.1 ± 2.4
